Numbering of substitutions follows the chain as printed.
B1: caninized monoclonal antibody C1 (antibody, V domains shown)
VH: EVQLQQSGAELVKPGASVKLSCTASGFNIKDTYMHWVKQRPEQGLEWIGRIDPAIDNTKYDPKFQGKATITADTSSNTAYLQLSSLTSEDTAVYYCASGFYTMDYWGQGTSVTVSS
VL: QIVLTQSPAIMSASPGEKVTMTCSASSSVTYMYWFQQKPGSSPRLWIYDTSNLVSGVPARFSGSRSGTSYSLTISSMEAEDAATYYCQQYSGHPSSFGSGTKLEIKR
notes: Variable domains as for M1; also called C1(35.38); 35.38
B2: caninized monoclonal antibody C11 (antibody, V domains shown)
VH: B1 VH with L11V, D56G, T58P, K67R, T102A, Y105C
VL: B1 VL with V29I, Y33F, F35Y, R65K, S75T, H93Y, S96T
notes: Variable domains as for M11; also called C11(37.40); 37.40
B3: caninized monoclonal antibody C3 (antibody, V domains shown)
VH: B1 VH with Q3R, M34L, V37L, Q39E, D56G, K59R, G66V, T91S, S98R, T102G
VL: B1 VL with T30S, Y33F, F35Y, H93Y, S95Y, S96T, S99G
notes: Variable domains as for M3; also called C3(36.39); 36.39

Key:
[1] = biological target: T1, canine PD-1 protein amino acids 25-168 with His tag (canine, UniProt A0A090BAM7 25-168); test: kinetics, PD-1 His 1.1 nM
T1 construct: Expressed in Expi293F cells; used as immunogen and as antigen in ELISA and Octet; also called PD-1 His

[2] = biological target: T1, canine PD-1 protein amino acids 25-168 …; test: kinetics, PD-1 His 4.0 nM
[3] = biological target: T1, canine PD-1 protein amino acids 25-168 …; test: kinetics, PD-1 His 12.4 nM
[4] = biological target: T1, canine PD-1 protein amino acids 25-168 …; test: kinetics, PD-1 His 37.3 nM
[5] = biological target: T1, canine PD-1 protein amino acids 25-168 …; test: kinetics, PD-1 His 111.3 nM
[6] = biological target: T1, canine PD-1 protein amino acids 25-168 …; test: kinetics, PD-1 His 333.3 nM
[7] = biological target: T1, canine PD-1 protein amino acids 25-168 …; test: kinetics, PD-1 His 1000.0 nM
[8] = biological target: T1, canine PD-1 protein amino acids 25-168 …; test: kinetics, global fit over PD-1 His 1.1-1000 nM
[9] = biological target: T1, canine PD-1 protein amino acids 25-168 …; test: kinetics, global fit over the PD-1 His series 1.1-1000.0 nM
[10] = biological target: T2, PD1 on the surface of T cells (canine PBMC stimulated with ConA) (canine, UniProt A0A090BAM7 25-288); test: flow cytometry, ConA-stimulated canine PBMC, CD3-FITC and PE-labeled anti-canine IgG
T2 construct: also called canine PD-1
Protocol: (§1) The cells were stimulated by 0.5 μg/mL ConA for 3 days, and collected. PBMC was incubated with canine-anti-CD3-FITC and caninized monoclonal antibodies C1, C3 and C11 respectively. Then the cells were incubated again with PE-labeled canine-IgG antibody. […] Moreover, the results also indicate that the caninized monoclonal antibodies C1, C3 and C11 have potential blocking effect on the PD1/PD-L1 signaling pathway, and thus have protective effect on the function of T cells (see FIG. 14).

[11] = biological target: T2, PD1 on the surface of T cells (canine …); test: flow cytometry on ConA-stimulated canine PBMC, stained with anti-CD3-FITC and the caninized antibody, detected with PE-labeled anti-canine IgG; quadrant plot FITC against PE; no unstained or isotype control shown
Protocol: as §1

T1 sequence (A0A090BAM7 entry or part of it limits assumed): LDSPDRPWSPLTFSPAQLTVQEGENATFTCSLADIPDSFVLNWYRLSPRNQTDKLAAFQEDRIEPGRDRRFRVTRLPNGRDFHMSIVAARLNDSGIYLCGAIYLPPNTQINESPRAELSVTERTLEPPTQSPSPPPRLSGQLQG
T2 sequence (A0A090BAM7 entry or part of it limits assumed): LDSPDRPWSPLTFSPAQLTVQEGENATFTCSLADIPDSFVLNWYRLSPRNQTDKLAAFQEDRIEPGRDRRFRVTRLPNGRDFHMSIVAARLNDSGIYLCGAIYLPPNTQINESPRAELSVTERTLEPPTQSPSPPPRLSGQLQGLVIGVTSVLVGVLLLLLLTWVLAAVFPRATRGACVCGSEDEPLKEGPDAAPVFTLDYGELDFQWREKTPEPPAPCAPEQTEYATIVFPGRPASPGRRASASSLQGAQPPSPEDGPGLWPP

Binder	Response (nm) [1]	Response (nm) [2]	Response (nm) [3]	Kd [4]	Response (nm) [4]	koff [4]	kon [4]	Kd [5]	Response (nm) [5]	koff [5]	kon [5]	Response (nm) [6]	Response (nm) [7]	Kd [8]	koff [8]	kon [8]	Kd [9]	koff [9]	kon [9]	PD1 positive cells in T cells [10]	also measured
B1	-0.031 nm	0.005 nm	0.001 nm	2650 pM	0.008 nm	0.00953 s⁻¹	3.6e+06 M⁻¹ s⁻¹	2060 pM	0.016 nm	0.000886 s⁻¹	430000 M⁻¹ s⁻¹	-0.004 nm	0.001 nm	1600 pM	0.401 s⁻¹	2.51e+08 M⁻¹ s⁻¹	1600 pM	0.401 s⁻¹	2.51e+08 M⁻¹ s⁻¹	94.6%	Kd [2]: 18400 pM; koff [2]: 1.27 s⁻¹; kon [2]: 6.93e+07 M⁻¹ s⁻¹; Kd [3]: 2460 pM; koff [3]: 0.0198 s⁻¹; kon [3]: 8.05e+06 M⁻¹ s⁻¹; % of cells in quadrant Q2 (Comp-FITC-A positive, Comp-PE-A positive) [11]: 57.9%
B2	-0.003 nm	0.004 nm	0.008 nm	< 1 pM	0.015 nm	< 1e-07 s⁻¹	67600 M⁻¹ s⁻¹	< 1 pM	0.025 nm	< 1e-07 s⁻¹	23800 M⁻¹ s⁻¹	0.012 nm	0.009 nm	< 1 pM	< 1e-07 s⁻¹	1190 M⁻¹ s⁻¹	< 1 pM	< 1e-07 s⁻¹	1190 M⁻¹ s⁻¹	96.7%	Kd [3]: < 1 pM; koff [3]: < 1e-07 s⁻¹; kon [3]: 50100 M⁻¹ s⁻¹; Kd [6]: < 1 pM; koff [6]: < 1e-07 s⁻¹; kon [6]: 947 M⁻¹ s⁻¹; Kd [7]: < 1 pM; koff [7]: < 1e-07 s⁻¹; kon [7]: 1470 M⁻¹ s⁻¹; % of cells in quadrant Q2 (Comp-FITC-A positive, Comp-PE-A positive) [11]: 62.6%
B3	0.002 nm	0.009 nm	0.005 nm	< 1 pM	0.017 nm	< 1e-07 s⁻¹	40500 M⁻¹ s⁻¹	< 1 pM	0.026 nm	< 1e-07 s⁻¹	14700 M⁻¹ s⁻¹	0.01 nm	0.007 nm	< 1 pM	< 1e-07 s⁻¹	626 M⁻¹ s⁻¹	< 1 pM	< 1e-07 s⁻¹	626 M⁻¹ s⁻¹	96.2%	Kd [6]: < 1 pM; koff [6]: < 1e-07 s⁻¹; kon [6]: 1760 M⁻¹ s⁻¹; Kd [7]: < 1 pM; koff [7]: < 1e-07 s⁻¹; kon [7]: 330 M⁻¹ s⁻¹; % of cells in quadrant Q2 (Comp-FITC-A positive, Comp-PE-A positive) [11]: 53.1%
